Measured values taken from patent US20170137838.
Like-named read-outs stand apart in the source and are kept apart here.

Test system: ONAC131 (Os12g03040.1) (Oryza sativa subsp. japonica cv. Nipponbare)
[1] = relative to SO1, SD 0.03, CELD assay
[2] = relative to SO1, SD 0.01, CELD assay
[3] = relative to SO1, SD 0.05, CELD assay

Question: “AATCCACCGCCATAAATCTACGTAACAAGTCA (double strand) [Rice chitinase site II]” was tested. Which binding signal (relative to SO1, CELD assay) did it give?
Answer: 0

Question: How did the binding signal [1] turn out when “CACTTGACACGTGGGATCCACGTCACCATCCT (double strand) [Rice glyoxalase I family promoter element]” was run?
Answer: 0.29

Question: With “GAGATCCGTGCACAGTAAATAACTGTTACA (double strand) [SO1m14]” as the sequence, how does the binding signal (relative to SO1, CELD assay) read?
Answer: 0

Question: How did the binding signal (CELD reporter assay on streptavidin plate, reference, SD 0.03, pH 7.0, 50 mM KCl, 2 mM MgCl2) turn out when “GAGATCCGTGCACAGTACGTAACTGTTACA (double strand) [SO1 (TaNAC69 high affinity binding site I)]” was run?
Answer: 1

Question: Which binding signal [2] does the source give for “GAGATCTGTGCACAGTACGTAACTGTTACA (double strand) [SO1m28]” here?
Answer: 0.01

Question: For “GAGGCCCTTAATGTTTACACGTCTCTAGTG (double strand) [SO39m6]”, which binding signal [2] is on record?
Answer: 0.18

Question: For “GAGGTGTTTAATGTTTACACGTCTCTAGTG (double strand) [SO39 (TaNAC69 high affinity binding site II)]”, which binding signal [3] is on record?
Answer: 0.93

Question: Which binding signal [3] does the source give for “GATTTGTCTCGTAATTTACACGTAATCTGTGT (double strand) [Rice ZIM family protein promoter element]” here?
Answer: 0.43

Question: Which binding signal (relative to SO1, SD 0.03, same sequence as rice chitinase site I) does the source give for “GCCAGCGTTCTGTTTCTGTACGTCTCTCTGGG (double strand) [Arabidopsis glyoxalase I family 5'-UTR element]” here?
Answer: 1.07

Question: How did the binding signal [1] turn out when “GCCAGCGTTCTGTTTCTGTACGTCTCTCTGGG (double strand) [Rice chitinase site I]” was run?
Answer: 1.07

Question: “TTCCGTAGTTTACTGGATCACGACACACACAC (double strand) [Rice chitinase site III]” was tested. Which binding signal (relative to SO1, SD 0.02, CELD assay) did it give?
Answer: 0.15
